Results: IntAct's records for PubMed 17923090

B1: Interferon regulatory factor 9 (Homo sapiens), Q00978 (parent)
chain: MASGRARCTRKLRNWVVEQVESGQFPGVCWDDTAKTMFRIPWKHAGKQDFREDQDAAFFKAWAIFKGKYKEGDTGGPAVWKTRLRCALNKSSEFKEVPERGRMDVAEPYKVYQLLPPGIVSGQPGTQKVPSKRQHSSVSSERKEEEDAMQNCTLSPSVLQDSLNNEEEGASGGAVHSDIGSSSSSSSPEPQEVTDTTEAPFQGDQRSLEFLLPPEPDYSLLLTFIYNGRVVGEAQVQSLDCRLVAEPSGSESSMEQVLFPKPGPLEPTQRLLSQLERGILVASNPRGLFVQRLCPIPISWNAPQAPPGPGPHLLPSNECVELFRTAYFCRDLVRYFQGLGPPPKFQVTLNFWEESHGSSHTPQNLITVKMEQAFARYLLEQTPEQQAAILSLV
partner: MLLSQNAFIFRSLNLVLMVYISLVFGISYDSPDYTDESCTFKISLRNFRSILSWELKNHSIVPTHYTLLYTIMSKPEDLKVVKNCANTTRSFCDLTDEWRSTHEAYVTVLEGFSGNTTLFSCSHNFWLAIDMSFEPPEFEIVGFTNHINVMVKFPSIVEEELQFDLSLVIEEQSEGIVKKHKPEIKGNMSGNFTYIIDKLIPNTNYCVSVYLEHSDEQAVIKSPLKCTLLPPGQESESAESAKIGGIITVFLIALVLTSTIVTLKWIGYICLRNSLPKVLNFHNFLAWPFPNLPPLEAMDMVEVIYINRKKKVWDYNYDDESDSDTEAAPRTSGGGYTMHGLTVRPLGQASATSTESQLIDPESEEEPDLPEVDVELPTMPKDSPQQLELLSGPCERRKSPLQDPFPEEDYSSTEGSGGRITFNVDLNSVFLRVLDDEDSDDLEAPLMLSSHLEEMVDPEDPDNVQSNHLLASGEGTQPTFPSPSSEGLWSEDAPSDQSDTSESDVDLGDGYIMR
B2: Interferon alpha/beta receptor 2 (Homo sapiens), P48551 (parent)
chain: B1 partner
partner: B1 chain
B3: Interferon alpha/beta receptor 2 (Homo sapiens), P48551 (parent)
chain: B1 partner

Variants of: B1
Settings: with inar2_human IFNAR2, P48551

effect of a mutation on the interaction	Variant
decreasing interaction	R292Q

Variants of: B2
Settings: with irf9_human IRF9, Q00978

effect of a mutation on the interaction	Variant
decreasing interaction	K399A;S400A
decreasing interaction	K399A
increasing interaction	S400A

Variants of: B3
Settings: with cbp_human CREBBP

effect of a mutation on the interaction	Variant
decreasing interaction	S364A
decreasing interaction	S384A
